The values that follow come from patent US20210069244A1.

This assay has as its target CD19 antigen on CD19 positive RS4;11 and Raji cells (human) (UniProt P15391). Put plainly: cell-based or functional assay.
UniProt P15391, sequence (P15391 20-556): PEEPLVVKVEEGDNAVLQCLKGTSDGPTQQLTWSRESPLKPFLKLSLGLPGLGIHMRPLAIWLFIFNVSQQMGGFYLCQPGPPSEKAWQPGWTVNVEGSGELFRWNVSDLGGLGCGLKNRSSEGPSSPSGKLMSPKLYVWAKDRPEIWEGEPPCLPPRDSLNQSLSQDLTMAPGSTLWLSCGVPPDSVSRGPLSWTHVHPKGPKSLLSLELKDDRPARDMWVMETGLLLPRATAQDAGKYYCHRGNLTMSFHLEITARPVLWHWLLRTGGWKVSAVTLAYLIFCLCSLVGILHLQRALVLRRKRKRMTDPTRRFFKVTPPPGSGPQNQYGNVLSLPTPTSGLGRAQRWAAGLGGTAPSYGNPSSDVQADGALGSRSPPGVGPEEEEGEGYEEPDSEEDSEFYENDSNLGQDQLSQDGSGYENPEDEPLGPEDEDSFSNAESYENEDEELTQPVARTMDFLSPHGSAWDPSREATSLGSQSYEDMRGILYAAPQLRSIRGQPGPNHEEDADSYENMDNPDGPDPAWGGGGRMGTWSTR

Turning to FMC63 artificial CAR19, the cytotoxicity, RS4;11 cells, CAR19 T cell:tumor cell 5:1, donor 1, 4 h co-culture (calcein AM/PI flow cytometry) is 45.8%; the cytotoxicity, RS4;11 cells, CAR19 T cell:tumor cell 5:1, donor 2, 4 h co-culture (calcein AM/PI flow cytometry) was 65.6%; the cytotoxicity, RS4;11 cells, CAR19 T cell:tumor cell 10:1, donor 1, 4 h co-culture (calcein AM/PI flow cytometry) is 55.8%; the cytotoxicity, RS4;11 cells, CAR19 T cell:tumor cell 10:1, donor 2, 4 h co-culture (calcein AM/PI flow cytometry) was 77.1%. Further, the cytotoxicity, Raji cells, CAR19 T cell:tumor cell 1:1, donor 1, 4 h co-culture (calcein AM/PI flow cytometry) is 4.17%; the cytotoxicity, Raji cells, CAR19 T cell:tumor cell 1:1, donor 2, 4 h co-culture (calcein AM/PI flow cytometry) was 46.4%; the cytotoxicity, Raji cells, CAR19 T cell:tumor cell 2:1, donor 1, 4 h co-culture (calcein AM/PI flow cytometry) was 25.3%; the cytotoxicity, Raji cells, CAR19 T cell:tumor cell 2:1, donor 2, 4 h co-culture (calcein AM/PI flow cytometry) was 59.9%. The percentage of CD19 positive RS4;11 cells remaining after 24 h co-culture with CAR-T cells was found to be 45.1% and the percentage of CD19 positive Raji cells remaining after 24 h co-culture with CAR-T cells came out at 7.42%.
